Earlier results, collected in PMC6757120.

Molecular target: VEGF-A165 (Homo sapiens) (UniProt P15692)
Sequence of UniProt P15692 (P15692 whole entry): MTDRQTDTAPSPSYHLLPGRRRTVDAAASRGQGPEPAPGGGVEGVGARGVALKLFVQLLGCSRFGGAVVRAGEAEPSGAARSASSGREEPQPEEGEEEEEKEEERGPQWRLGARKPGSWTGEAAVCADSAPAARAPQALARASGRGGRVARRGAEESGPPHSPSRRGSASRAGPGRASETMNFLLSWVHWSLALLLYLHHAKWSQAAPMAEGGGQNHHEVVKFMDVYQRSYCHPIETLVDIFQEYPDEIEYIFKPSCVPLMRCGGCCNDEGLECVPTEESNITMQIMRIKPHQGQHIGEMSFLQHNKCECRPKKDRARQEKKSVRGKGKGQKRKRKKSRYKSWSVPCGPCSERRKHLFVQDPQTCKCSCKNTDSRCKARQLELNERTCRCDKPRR

For NRP1 (from UniProt O14786), the Kd is listed as 3 nM.
